Here are results for one molecule from publication PMC11194070, “Despite the odds: formation of the SARS-CoV-2 methylation complex” (Nucleic Acids Research, 2024).

The experiment concerns the target T1, SARS-CoV-2 nonstructural protein 10 (nsp10) (SARS-CoV-2, UniProt P0DTD1 4254-4392).
T1 construct: also called 2H15N-nsp10; apo-nsp10
Description: MST. The following applies: both partners purified.

B1: nsp14ExoN, nsp14 without the methyltransferase domain but retaining the exonuclease activity (domain or fragment)
chain: AENVTGLFKDCSKVITGLHPTQAPTHLSVDTKFKTEGLCVDIPGIPKDMTYRRLISMMGFKMNYQVNGYPNMFITREEAIRHVRAWIGFDVEGCHATREAVGTNLPLQLGFSTGVNLVAVPTGYVDTPNNTDFSRVSAKPPPGDQFKHLIPLMYKGLPWNVVRIKIVQMLSDTLKNLSDRVVFVLWAHGFELTSMKYFVKIGPERTCCLCDRRATCFSTASDTYACWHHSIGFDYVYNPFMIDVQQWGFTGNLQSNHDLYCQVHGNAHVASCDAIMTRCLAVHECFVKRVDWTIE
The molecule B1 gave a dissociation constant Kd of 4.55 ± 2.68 µM.
